Reference: patent US20020151498A1

Tests used:
[1] = molecular target: LSR alpha subunit (68 kDa) (rat) (UniProt Q9WU74); test: ultracentrifugation assay, in vitro translated labeled subunit with LDL, with against without oleate
[2] = molecular target: LSR beta subunit (56 kDa) (rat) (UniProt Q9WU74); test: as above
LSR beta subunit (56 kDa) (rat), sequence (Q9WU74 other isoform, or with tags, fused parts or gaps limits assumed): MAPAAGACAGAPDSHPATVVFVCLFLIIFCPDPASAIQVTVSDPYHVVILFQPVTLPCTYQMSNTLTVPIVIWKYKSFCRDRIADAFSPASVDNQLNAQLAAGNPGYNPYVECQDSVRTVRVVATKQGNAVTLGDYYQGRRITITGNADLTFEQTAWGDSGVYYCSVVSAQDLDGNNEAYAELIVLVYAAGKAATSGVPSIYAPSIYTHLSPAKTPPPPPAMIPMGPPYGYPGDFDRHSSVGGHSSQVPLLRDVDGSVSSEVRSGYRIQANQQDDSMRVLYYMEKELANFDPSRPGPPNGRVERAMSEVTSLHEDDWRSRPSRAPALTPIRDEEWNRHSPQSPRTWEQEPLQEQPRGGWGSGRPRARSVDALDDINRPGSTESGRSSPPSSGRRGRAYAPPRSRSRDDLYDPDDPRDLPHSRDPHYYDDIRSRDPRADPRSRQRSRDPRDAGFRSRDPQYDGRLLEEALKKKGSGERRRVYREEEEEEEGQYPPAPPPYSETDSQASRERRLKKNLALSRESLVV

LSR alpha subunit (68 kDa) (rat), sequence (Q9WU74 whole entry): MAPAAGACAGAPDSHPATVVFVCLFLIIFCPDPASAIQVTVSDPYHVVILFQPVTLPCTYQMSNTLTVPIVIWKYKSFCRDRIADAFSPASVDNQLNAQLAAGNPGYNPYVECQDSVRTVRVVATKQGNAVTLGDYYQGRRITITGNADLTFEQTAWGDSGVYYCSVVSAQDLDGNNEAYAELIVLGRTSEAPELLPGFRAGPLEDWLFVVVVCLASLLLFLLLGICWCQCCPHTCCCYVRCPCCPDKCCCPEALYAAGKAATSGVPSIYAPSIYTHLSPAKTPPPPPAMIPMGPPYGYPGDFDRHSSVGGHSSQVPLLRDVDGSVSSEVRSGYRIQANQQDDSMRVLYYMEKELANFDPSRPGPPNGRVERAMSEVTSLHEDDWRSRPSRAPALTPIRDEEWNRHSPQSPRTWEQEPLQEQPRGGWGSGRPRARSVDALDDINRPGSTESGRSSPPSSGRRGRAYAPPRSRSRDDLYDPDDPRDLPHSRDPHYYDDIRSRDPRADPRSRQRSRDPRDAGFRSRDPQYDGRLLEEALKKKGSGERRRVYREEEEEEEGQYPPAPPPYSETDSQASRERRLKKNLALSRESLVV

## LDL (low density lipoprotein) (ligand)
[1]
  fold enhancement of binding in the presence of oleate: 2 fold
[2]
  fold enhancement of binding in the presence of oleate: 5 fold
